Test results from doi:10.1101/388868, “Heterodimerization of UNC-13/RIM regulates synaptic vesicle release probability but not priming” (bioRxiv, 2018).

T1: C. elegans UNC-13 long isoform residues 1-258 bearing the K49E mutation (C. elegans)
T1 chain: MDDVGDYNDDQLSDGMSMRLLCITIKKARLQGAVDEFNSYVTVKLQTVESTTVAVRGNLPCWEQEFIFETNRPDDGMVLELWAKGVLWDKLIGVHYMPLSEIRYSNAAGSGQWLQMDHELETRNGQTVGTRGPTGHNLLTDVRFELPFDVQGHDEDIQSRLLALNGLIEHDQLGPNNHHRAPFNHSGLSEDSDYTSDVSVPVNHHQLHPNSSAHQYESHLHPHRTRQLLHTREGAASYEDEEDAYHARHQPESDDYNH


Tests used:
[1] = molecular target: the molecule itself; assay: SEC; gel filtration of purified UNC-13L C2A, wild type or K49E; calibrated with alcohol dehydrogenase (150 kDa), bovine serum albumin (66 kDa) and carbonic anhydrase (29 kDa); void volume 10.78mL
[2] = molecular target: T1, C. elegans UNC-13 long isoform residues …; assay: ITC

Row | Ka [2] | Binder | stoichiometry N [1]
1 | – | UNC-13L C2A domain, wild type (recombinant, gel filtration) (domain or fragment) MDDVGDYNDDQLSDGMSMRLLCITIKKARLQGAVDEFNSYVTVKLQTVKSTTVAVRGNLPCWEQEFIFETNRPDDGMVLELWAKGVLWDKLIGVHYMPLSEIRYSNAAGSGQWLQMDHELETRNGQTVGTRGPTGHNLLTDVRFELPFDVQGHDEDIQSRLLALNGLIEHDQLGPNNHHRAPFNHSGLSEDSDYTSDVSVPVNHHQLHPNSSAHQYESHLHPHRTRQLLHTREGAASYEDEEDAYHARHQPESDDYNH | 2
2 | 789000 M⁻¹ | C. elegans UNC-10 residues 62-121 WT (domain or fragment) KLVGTQDDAICQICQKTKFADGIGHKCFYCQLRSCARCGGRAQSKNKAIWACSLCQKRQQ | –
